Test results taken from IntAct's records for PubMed 19534813.

B1: Twist-related protein 1 (Homo sapiens), Q15672 (parent)
chain: MMQDVSSSPVSPADDSLSNSEEEPDRQQPPSGKRGGRKRRSSRRSAGGGAGPGGAAGGGVGGGDEPGSPAQGKRGKKSAGCGGGGGAGGGGGSSSGGGSPQSYEELQTQRVMANVRERQRTQSLNEAFAALRKIIPTLPSDKLSKIQTLKLAARYIDFLYQVLQSDELDSKMASCSYVAHERLSYAFSVWRMEGAWSMSASH

Variants of: B1
Conditions: with itf2_human TCF4, P15884
itf2_human TCF4, P15884, sequence (P15884 whole entry): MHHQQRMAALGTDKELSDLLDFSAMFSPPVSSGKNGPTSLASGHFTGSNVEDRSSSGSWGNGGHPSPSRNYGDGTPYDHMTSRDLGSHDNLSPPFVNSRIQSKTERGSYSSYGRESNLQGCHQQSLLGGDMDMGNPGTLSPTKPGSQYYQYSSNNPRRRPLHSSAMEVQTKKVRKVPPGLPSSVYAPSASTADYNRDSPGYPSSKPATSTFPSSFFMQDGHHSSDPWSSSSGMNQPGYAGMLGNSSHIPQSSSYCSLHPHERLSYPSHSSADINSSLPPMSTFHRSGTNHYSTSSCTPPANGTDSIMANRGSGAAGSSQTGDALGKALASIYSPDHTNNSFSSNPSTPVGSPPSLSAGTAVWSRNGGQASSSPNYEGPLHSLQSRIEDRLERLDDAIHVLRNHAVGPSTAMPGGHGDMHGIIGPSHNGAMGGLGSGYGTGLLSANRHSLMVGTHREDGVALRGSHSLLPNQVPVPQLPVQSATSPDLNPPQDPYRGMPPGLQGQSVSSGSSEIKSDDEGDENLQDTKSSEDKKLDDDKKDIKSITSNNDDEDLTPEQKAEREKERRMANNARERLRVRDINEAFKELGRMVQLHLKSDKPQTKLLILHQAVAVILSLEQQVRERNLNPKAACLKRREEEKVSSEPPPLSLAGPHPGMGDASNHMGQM

Variant | effect of a mutation on the interaction
MMQDVSSSPVSPADDSLSNSEEEPDRQQPPSGKRGGRKRRSSRRSAGGGAGPGGAAGGGVGGGDEPGSPAQGKRGKRSAGCGGGGGAGGGGGSSSGGGSPQSYEELQTQRVMANVRERQRTQSLNEAFAALRKIIPTLPSDKLSKIQTLKLAARYIDFLYQVLQSDELDSKMASCSYVAHERLSYAFSVWRMEGAWSMSASH [K77R] | with no effect
MMQDVSSSPVSPADDSLSNSEEEPDRQQPPSGKRGGRKRRSSRRSAGGGAGPGGAAGGGVGGGDEPGSPAQGRRGKKSAGCGGGGGAGGGGGSSSGGGSPQSYEELQTQRVMANVRERQRTQSLNEAFAALRKIIPTLPSDKLSKIQTLKLAARYIDFLYQVLQSDELDSKMASCSYVAHERLSYAFSVWRMEGAWSMSASH [K73R] | with no effect
MMQDVSSSPVSPADDSLSNSEEEPDRQQPPSGKRGGRRRRSSRRSAGGGAGPGGAAGGGVGGGDEPGSPAQGKRGKKSAGCGGGGGAGGGGGSSSGGGSPQSYEELQTQRVMANVRERQRTQSLNEAFAALRKIIPTLPSDKLSKIQTLKLAARYIDFLYQVLQSDELDSKMASCSYVAHERLSYAFSVWRMEGAWSMSASH [K38R] | with no effect
